This note sets out measurements from ChEMBL document CHEMBL1143427, “Interactions of ceftobiprole with beta-lactamases from molecular classes A to D” (Antimicrob Agents Chemother, 2007).

Usually kcat/Km stands for the turnover number divided by the Michaelis constant. Usually Km stands for the concentration of substrate that gives half-maximal velocity. The term kcat denotes the maximal rate divided by the concentration of active sites.

Substrate in data set [1]: CC1(C)S[C@@H]2[C@H](NC(=O)Cc3ccccc3)C(=O)N2[C@H]1C(=O)O
Nature of the data set: (§1) Ratio of Kcat to Km of Klebsiella oxytoca beta-lactamase K1 assessed as drug hydrolysis by spectrophotometry.

Substrate in data set [2]: CO/N=C(\C(=O)N[C@@H]1C(=O)N2C(C(=O)[O-])=C(C[N+]3(C)CCCC3)CS[C@H]12)c1csc(N)n1
The description is as §1.

Substrate in data set [3]: O=C(Cc1cccs1)N[C@@H]1C(=O)N2C(C(=O)[O-])=C(C[n+]3ccccc3)CS[C@H]12
The data set is described as §1.

Substrate in data set [4]: Nc1nc(/C(=N/O)C(=O)N[C@@H]2C(=O)N3C(C(=O)O)=C(/C=C4\CCN([C@@H]5CCNC5)C4=O)CS[C@H]23)ns1
The description is as §1.

Substrate in data set [5]: CO/N=C(\C(=O)N[C@@H]1C(=O)N2C(C(=O)O)=C(COC(C)=O)CS[C@H]12)c1csc(N)n1
The data set is described as §1.

Substrate in data set [6]: CC(C)(O/N=C(\C(=O)N[C@@H]1C(=O)N2C(C(=O)[O-])=C(C[n+]3ccccc3)CS[C@H]12)c1csc(N)n1)C(=O)O
The data set is described as §1.

Substrate in data set [7]: CC1(C)S[C@@H]2[C@H](NC(=O)Cc3ccccc3)C(=O)N2[C@H]1C(=O)O
Nature of the data set: (§2) Activity of Klebsiella oxytoca beta-lactamase K1assessed as drug hydrolysis by spectrophotometry.

Substrate in data set [8]: CO/N=C(\C(=O)N[C@@H]1C(=O)N2C(C(=O)[O-])=C(C[N+]3(C)CCCC3)CS[C@H]12)c1csc(N)n1
The data set is described as §2.

Substrate in data set [9]: O=C(Cc1cccs1)N[C@@H]1C(=O)N2C(C(=O)[O-])=C(C[n+]3ccccc3)CS[C@H]12
Described as §2.

Substrate in data set [10]: Nc1nc(/C(=N/O)C(=O)N[C@@H]2C(=O)N3C(C(=O)O)=C(/C=C4\CCN([C@@H]5CCNC5)C4=O)CS[C@H]23)ns1
The description is as §2.

Substrate in data set [11]: CO/N=C(\C(=O)N[C@@H]1C(=O)N2C(C(=O)O)=C(COC(C)=O)CS[C@H]12)c1csc(N)n1
The description is as §2.

Substrate in data set [12]: CC(C)(O/N=C(\C(=O)N[C@@H]1C(=O)N2C(C(=O)[O-])=C(C[n+]3ccccc3)CS[C@H]12)c1csc(N)n1)C(=O)O
The data set is described as §2.

Substrate in data set [13]: CC1(C)S[C@@H]2[C@H](NC(=O)Cc3ccccc3)C(=O)N2[C@H]1C(=O)O
As to conditions: Escherichia coli.

Substrate in data set [14]: CO/N=C(\C(=O)N[C@@H]1C(=O)N2C(C(=O)[O-])=C(C[N+]3(C)CCCC3)CS[C@H]12)c1csc(N)n1
The conditions noted are these: Escherichia coli.

Substrate in data set [15]: O=C(Cc1cccs1)N[C@@H]1C(=O)N2C(C(=O)[O-])=C(C[n+]3ccccc3)CS[C@H]12
As to conditions: Escherichia coli.

Substrate in data set [16]: Nc1nc(/C(=N/O)C(=O)N[C@@H]2C(=O)N3C(C(=O)O)=C(/C=C4\CCN([C@@H]5CCNC5)C4=O)CS[C@H]23)ns1
The conditions noted are these: Escherichia coli.

Substrate in data set [17]: CC(C)(O/N=C(\C(=O)N[C@@H]1C(=O)N2C(C(=O)[O-])=C(C[n+]3ccccc3)CS[C@H]12)c1csc(N)n1)C(=O)O
As to conditions: Escherichia coli.

Substrate in data set [18]: CC1(C)S[C@@H]2[C@H](NC(=O)Cc3ccccc3)C(=O)N2[C@H]1C(=O)O
The conditions noted are these: Escherichia coli. This is another data set of the same source.

Substrate in data set [19]: CO/N=C(\C(=O)N[C@@H]1C(=O)N2C(C(=O)[O-])=C(C[N+]3(C)CCCC3)CS[C@H]12)c1csc(N)n1
As to conditions: Escherichia coli. The source holds these as a separate data set.

Substrate in data set [20]: O=C(Cc1cccs1)N[C@@H]1C(=O)N2C(C(=O)[O-])=C(C[n+]3ccccc3)CS[C@H]12
As to conditions: Escherichia coli. The source holds these as a separate data set.

Substrate in data set [21]: Nc1nc(/C(=N/O)C(=O)N[C@@H]2C(=O)N3C(C(=O)O)=C(/C=C4\CCN([C@@H]5CCNC5)C4=O)CS[C@H]23)ns1
The conditions noted are these: Escherichia coli. The source holds these as a separate data set.

Substrate in data set [22]: CC(C)(O/N=C(\C(=O)N[C@@H]1C(=O)N2C(C(=O)[O-])=C(C[n+]3ccccc3)CS[C@H]12)c1csc(N)n1)C(=O)O
As to conditions: Escherichia coli. This is another data set of the same source.

Substrate in data set [23]: CC1(C)S[C@@H]2[C@H](NC(=O)Cc3ccccc3)C(=O)N2[C@H]1C(=O)O
The conditions noted are these: Escherichia coli. This is another data set of the same source.

Substrate in data set [24]: CO/N=C(\C(=O)N[C@@H]1C(=O)N2C(C(=O)[O-])=C(C[N+]3(C)CCCC3)CS[C@H]12)c1csc(N)n1
The conditions noted are these: Escherichia coli. The source holds these as a separate data set.

Substrate in data set [25]: O=C(Cc1cccs1)N[C@@H]1C(=O)N2C(C(=O)[O-])=C(C[n+]3ccccc3)CS[C@H]12
As to conditions: Escherichia coli. The source holds these as a separate data set.

Substrate in data set [26]: Nc1nc(/C(=N/O)C(=O)N[C@@H]2C(=O)N3C(C(=O)O)=C(/C=C4\CCN([C@@H]5CCNC5)C4=O)CS[C@H]23)ns1
The conditions noted are these: Escherichia coli. The source holds these as a separate data set.

Substrate in data set [27]: CO/N=C(\C(=O)N[C@@H]1C(=O)N2C(C(=O)O)=C(COC(C)=O)CS[C@H]12)c1csc(N)n1
The conditions noted are these: Escherichia coli.

Substrate in data set [28]: CC(C)(O/N=C(\C(=O)N[C@@H]1C(=O)N2C(C(=O)[O-])=C(C[n+]3ccccc3)CS[C@H]12)c1csc(N)n1)C(=O)O
As to conditions: Escherichia coli. The source holds these as a separate data set.

Substrate in data set [29]: CC1(C)S[C@@H]2[C@H](NC(=O)Cc3ccccc3)C(=O)N2[C@H]1C(=O)O
Nature of the data set: (§3) Activity of Escherichia coli CTX-M-15 assessed as drug hydrolysis by spectrophotometry.

Substrate in data set [30]: CO/N=C(\C(=O)N[C@@H]1C(=O)N2C(C(=O)[O-])=C(C[N+]3(C)CCCC3)CS[C@H]12)c1csc(N)n1
The description is as §3.

Substrate in data set [31]: O=C(Cc1cccs1)N[C@@H]1C(=O)N2C(C(=O)[O-])=C(C[n+]3ccccc3)CS[C@H]12
Described as §3.

Substrate in data set [32]: Nc1nc(/C(=N/O)C(=O)N[C@@H]2C(=O)N3C(C(=O)O)=C(/C=C4\CCN([C@@H]5CCNC5)C4=O)CS[C@H]23)ns1
Described as §3.

Substrate in data set [33]: CO/N=C(\C(=O)N[C@@H]1C(=O)N2C(C(=O)O)=C(COC(C)=O)CS[C@H]12)c1csc(N)n1
The description is as §3.

Substrate in data set [34]: CC(C)(O/N=C(\C(=O)N[C@@H]1C(=O)N2C(C(=O)[O-])=C(C[n+]3ccccc3)CS[C@H]12)c1csc(N)n1)C(=O)O
The data set is described as §3.

B1: Beta-lactamase (Klebsiella oxytoca), Q8RT60 (protein)
chain: MIKSSWRKIAMLAAAVPLLLASGALWASTDAIHQKLTDLEKRSGGRLGVALINTADNSQILYRGDERFAMCSTSKVMAAAAVLKQSESNKEVVNKRLEINAADLVVWSPITEKHLQSGMTLAELSAATLQYSDNTAMNLIIGYLGGPEKVTAFARSIGDATFRLDRTEPTLNTAIPGDERDTSTPLAMAESLRKLTLGDALGEQQRAQLVTWLKGNTTGGQSIRAGLPESWVVGDKTGAGDYGTTNDIAVIWPEDHAPLILVTYFTQPQQDAKNRKEVLAAAAKIVTEGL
On to B1, for which the kcat/Km in data set [1] was found to be 2.8e+07 M⁻¹ s⁻¹; in data set [2] it was 59000 M⁻¹ s⁻¹; in [3], 7e+06 M⁻¹ s⁻¹; in data set [4] it was 7.2e+06 M⁻¹ s⁻¹; in data set [5] it was 160000 M⁻¹ s⁻¹; in data set [6], 130 M⁻¹ s⁻¹. Moreover, the Km in [7] stood at 40 µM; in data set [8] it was 1000 µM; in data set [9], 100 µM; in data set [10], 32 µM; in data set [11] it was 550 µM; in data set [12], 140 µM. Also, the kcat in data set [7] was determined as 1100 s⁻¹; in [8], 59 s⁻¹; in data set [9] it was 700 s⁻¹; in data set [10] it was 230 s⁻¹; in data set [11], 88 s⁻¹; in [12], 0.018 s⁻¹.

B2: Class A carbapenemase KPC-2 (Escherichia coli), A8DS27 (protein)
chain: MSLYRRLVLLSCLSWPLAGFSATALTNLVAEPFAKLEQDFGGSIGVYAMDTGSGATVSYRAEERFPLCSSFKGFLAAAVLARSQQQAGLLDTPIRYGKNALVPWSPISEKYLTTGMTVAELSAAAVQYSDNAAANLLLKELGGPAGLTAFMRSIGDTTFRLDRWELELNSAIPGDARDTSSPRAVTESLQKLTLGSALAAPQRQQFVDWLKGNTTGNHRIRAAVPADWAVGDKTGTCGVYGTANDYAVVWPTGRAPIVLAVYTRAPNKDDKHSEAVIAAAARLALEGLGVNGQ
Consider B2, for which the catalytic efficiency (kcat/Km) came out at 2e+06 M⁻¹ s⁻¹ in data set [13]; 22000 M⁻¹ s⁻¹ in [14]; 770000 M⁻¹ s⁻¹ in data set [15]; 320000 M⁻¹ s⁻¹ in data set [16]; 1700 M⁻¹ s⁻¹ in data set [17]. The Km turned out to be 30 µM in data set [18]; 540 µM in data set [19]; 510 µM in data set [20]; 340 µM in data set [21]; 230 µM in [22]. Besides, the kcat in [18] was 60 s⁻¹; in data set [19], 12 s⁻¹; in [20], 390 s⁻¹; in data set [21] it was 110 s⁻¹; in data set [22], 0.38 s⁻¹.

B3: Beta-lactamase CTX-M (Escherichia coli), Q9EXV5 (protein)
chain: MVKKSLRQFTLMATATVTLLLGSVPLYAQTADVQQKLAELERQSGGRLGVALINTADNSQILYRADERFAMCSTSKVMAAAAVLKKSESEPNLLNQRVEIKKSDLVNYNPIAEKHVNGTMSLAELSAAALQYSDNVAMNKLIAHVGGPASVTAFARQLGDETFRLDRTEPTLNTAIPGDPRDTTSPRAMAQTLRNLTLGKALGDSQRAQLVTWMKGNTTGAASIQAGLPASWVVGDKTGSGGYGTTNDIAVIWPKDRAPLILVTYFTQPQPKAESRRDVLASAAKIVTDGL
Take B3: the catalytic efficiency (kcat/Km) in data set [23] came to 5.4e+06 M⁻¹ s⁻¹; in data set [24] it was 250000 M⁻¹ s⁻¹; in [25], 4.9e+06 M⁻¹ s⁻¹; in data set [26], 1.4e+07 M⁻¹ s⁻¹; in data set [27], 6.9e+06 M⁻¹ s⁻¹; in [28], 18000 M⁻¹ s⁻¹. The Km in data set [29] stood at 8.7 µM; in data set [30], 180 µM; in data set [31], 39 µM; in [32], 19 µM; in data set [33] it was 26 µM; in data set [34], 240 µM. Moreover, the kcat in [29] came to 47 s⁻¹; in data set [30] it was 45 s⁻¹; in data set [31], 190 s⁻¹; in data set [32] it was 270 s⁻¹; in [33] it was 180 s⁻¹; in data set [34], 4.4 s⁻¹.
